The term stoichiometry N denotes a count of units in the complex or per binding partner.

This note sets out measurements from PMC11326647, “In vitro reconstitution reveals membrane clustering and RNA recruitment by the enteroviral AAA+ ATPase 2C” (PLOS Pathogens, 2023).

For data set [1], the target named is 2C (MBP removed by TEV in situ, bound to SUVs) (Poliovirus type 1 Mahoney, UniProt P03300 1128-1456). Put plainly: SUV co-flotation, TET fluorescence. The following applies: protein: recombinant; tags: His6-MBP cleaved by TEV during assay; chain copies: 6; label: 5' TET on strand 1; blunt.
The data set “mass photometry” concerns the molecule itself. Kind of data set: mass photometry.
Data set [2] deals with the molecule itself. Put plainly: cryo-electron tomography (mass from the volume of segmented densities).

B1: dsRNA 20-mer (oligos 1+2) (dsRNA)
RNA 1: CCUCUAACCACAGUCUGAUC
RNA 2: GAUCAGACUGUGGUUAGAGG
For the molecule B1, the binding result in data set [1] is given as “binds”.

B2: His6-MBP-tagged full-length poliovirus 2C (residues 1-329) (natural protein)
chain: GDSWLKKFTEACNAAKGLEWVSNKISKFIDWLKEKIIPQARDKLEFVTKLRQLEMLENQISTIHQSCPSQEHQEILFNNVRWLSIQSKRFAPLYAVEAKRIQKLEHTINNYIQFKSKHRIEPVCLLVHGSPGTGKSVATNLIARAIAERENTSTYSLPPDPSHFDGYKQQGVVIMDDLNQNPDGADMKLFCQMVSTVEFIPPMASLEEKGILFTSNYVLASTNSSRISPPTVAHSDALARRFAFDMDIQVMNEYSRDGKLNMAMATEMCKNCHQPANFKRCCPLVCGKAIQLMDKSSRVRYSIDQITTMIINERNRRSNIGNCMEALFQ
notes: also called MBP-2C; His6MBP-2C
Regarding B2, in “mass photometry”, the “stoichiometry N” value was ~6.

B3: full-length poliovirus 2C, MBP tag cleaved off in the presence of liposomes (membrane-bound 2C) (natural protein)
chain: GDSWLKKFTEACNAAKGLEWVSNKISKFIDWLKEKIIPQARDKLEFVTKLRQLEMLENQISTIHQSCPSQEHQEILFNNVRWLSIQSKRFAPLYAVEAKRIQKLEHTINNYIQFKSKHRIEPVCLLVHGSPGTGKSVATNLIARAIAERENTSTYSLPPDPSHFDGYKQQGVVIMDDLNQNPDGADMKLFCQMVSTVEFIPPMASLEEKGILFTSNYVLASTNSSRISPPTVAHSDALARRFAFDMDIQVMNEYSRDGKLNMAMATEMCKNCHQPANFKRCCPLVCGKAIQLMDKSSRVRYSIDQITTMIINERNRRSNIGNCMEALFQ
notes: also called full-length 2C
Consider B3, for which, in data set [2], the “stoichiometry N” value was ~6.
